Results published in the supplement of paper PMC9112550, “Optimization of the antimicrobial peptide Bac7 by deep mutational scanning” (BMC Biology, 2022).

tested on: Escherichia coli TOP10; test: shrunken log2 fold change of peptide-encoding DNA abundance (4.5 h post-induction vs induction); higher = less antimicrobial activity (less host growth inhibition); details: time post-induction: 4.5 h; library: site-saturation at positions 5, 18, 19, 20
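Note: peptides expressed intracellularly from a pBAD plasmid library in pooled LB shake-flask culture, induced with 0.3% L-arabinose, DNA abundance read by NGS, three biological replicates, DESeq2 with apeglm shrinkage.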

Sequence | shrunken log2 fold change
RRIRSRPPRLPRPRPRPREIPRP | 0.426
RRIRSRPPRLPRPRPRPRFAPRP | 0.24
RRIRSRPPRLPRPRPRPRGGPRP | 0.84
RRIRSRPPRLPRPRPRPRGYPRP | 0.13
RRIRSRPPRLPRPRPRPRIKPRP | -0.00375
RRIRSRPPRLPRPRPRPRLYPRP | 0.114
RRIRSRPPRLPRPRPRPRMLPRP | -0.214
RRIRSRPPRLPRPRPRPRNAPRP | 0.374
RRIRSRPPRLPRPRPRPRNGPRP | 0.308
RRIRSRPPRLPRPRPRPRPTPRP | 0.391
RRIRSRPPRLPRPRPRPRQNPRP | -0.0458
RRIRSRPPRLPRPRPRPRTAPRP | 0.0119
RRIRSRPPRLPRPRPRPRTDPRP | 0.0755
RRIRSRPPRLPRPRPRPRWFPRP | 0.0783
RRIRSRPPRLPRPRPRPRWSPRP | 0.122
RRIRSRPPRLPRPRPRPRYCPRP | -0.483
RRIRSRPPRLPRPRPRPSACPRP | -0.0945
RRIRSRPPRLPRPRPRPSAEPRP | 0.567
RRIRSRPPRLPRPRPRPSCSPRP | -0.231
RRIRSRPPRLPRPRPRPSDDPRP | -0.274
RRIRSRPPRLPRPRPRPSDNPRP | -0.249
RRIRSRPPRLPRPRPRPSDYPRP | -0.87

Sequence | shrunken log2 fold change
RRIRSRPPRLPRPRPRPSITPRP | -0.392
RRIRSRPPRLPRPRPRPSLDPRP | -0.0696
RRIRSRPPRLPRPRPRPSMDPRP | -0.514
RRIRSRPPRLPRPRPRPSRVPRP | 0.107
RRIRSRPPRLPRPRPRPSVDPRP | 0.0566
RRIRSRPPRLPRPRPRPSVSPRP | -0.0446
RRIRSRPPRLPRPRPRPTARPRP | 0.44
RRIRSRPPRLPRPRPRPTDYPRP | -0.66
RRIRSRPPRLPRPRPRPTFKPRP | -0.0617
RRIRSRPPRLPRPRPRPTGTPRP | -0.0039
RRIRSRPPRLPRPRPRPTHGPRP | 0.28
RRIRSRPPRLPRPRPRPTHSPRP | 0.186
RRIRSRPPRLPRPRPRPTIIPRP | -0.35
RRIRSRPPRLPRPRPRPTLGPRP | 0.378
RRIRSRPPRLPRPRPRPTLKPRP | -0.139
RRIRSRPPRLPRPRPRPTNHPRP | -0.344
RRIRSRPPRLPRPRPRPTPFPRP | -0.0055
RRIRSRPPRLPRPRPRPTPQPRP | 0.388
RRIRSRPPRLPRPRPRPTRWPRP | 0.721
RRIRSRPPRLPRPRPRPTSDPRP | -0.00252
RRIRSRPPRLPRPRPRPTSNPRP | 0.133
RRIRSRPPRLPRPRPRPTSVPRP | 0.00616

Sequence | shrunken log2 fold change
RRIRSRPPRLPRPRPRPTTEPRP | 0.014
RRIRSRPPRLPRPRPRPTVNPRP | -0.477
RRIRSRPPRLPRPRPRPTVRPRP | -0.00791
RRIRSRPPRLPRPRPRPTWLPRP | 0.455
RRIRSRPPRLPRPRPRPTYFPRP | -0.563
RRIRSRPPRLPRPRPRPVAMPRP | 0.0384
RRIRSRPPRLPRPRPRPVAVPRP | 0.0198
RRIRSRPPRLPRPRPRPVAWPRP | 0.0469
RRIRSRPPRLPRPRPRPVCTPRP | -0.0518
RRIRSRPPRLPRPRPRPVDLPRP | -0.199
RRIRSRPPRLPRPRPRPVEFPRP | -0.928
RRIRSRPPRLPRPRPRPVGWPRP | 0.839
RRIRSRPPRLPRPRPRPVHMPRP | -0.322
RRIRSRPPRLPRPRPRPVKDPRP | -0.315
RRIRSRPPRLPRPRPRPVKIPRP | -0.131
RRIRSRPPRLPRPRPRPVMVPRP | -0.31
RRIRSRPPRLPRPRPRPVMWPRP | 0.459
RRIRSRPPRLPRPRPRPVNDPRP | -0.389
RRIRSRPPRLPRPRPRPVNIPRP | -0.261
RRIRSRPPRLPRPRPRPVPDPRP | -0.0298
RRIRSRPPRLPRPRPRPVPKPRP | 0.232
RRIRSRPPRLPRPRPRPVQEPRP | 0.403

Sequence | shrunken log2 fold change
RRIRSRPPRLPRPRPRPVSDPRP | 0.32
RRIRSRPPRLPRPRPRPVTFPRP | -0.21
RRIRSRPPRLPRPRPRPVTWPRP | 0.0066
RRIRSRPPRLPRPRPRPVVRPRP | 0.367
RRIRSRPPRLPRPRPRPVWSPRP | 0.0126
RRIRSRPPRLPRPRPRPWAMPRP | 0.0981
RRIRSRPPRLPRPRPRPWATPRP | -0.102
RRIRSRPPRLPRPRPRPWCHPRP | -0.4
RRIRSRPPRLPRPRPRPWDLPRP | 0.056
RRIRSRPPRLPRPRPRPWFDPRP | -0.271
RRIRSRPPRLPRPRPRPWGFPRP | -0.0589
RRIRSRPPRLPRPRPRPWGGPRP | 0.27
RRIRSRPPRLPRPRPRPWHHPRP | -0.0809
RRIRSRPPRLPRPRPRPWIKPRP | -0.34
RRIRSRPPRLPRPRPRPWIRPRP | -0.207
RRIRSRPPRLPRPRPRPWKCPRP | -0.0598
RRIRSRPPRLPRPRPRPWKLPRP | -0.221
RRIRSRPPRLPRPRPRPWKVPRP | -0.173
RRIRSRPPRLPRPRPRPWMEPRP | -0.384
RRIRSRPPRLPRPRPRPWMRPRP | 0.709
RRIRSRPPRLPRPRPRPWNSPRP | -0.19
RRIRSRPPRLPRPRPRPWNVPRP | -0.346

Sequence | shrunken log2 fold change
RRIRSRPPRLPRPRPRPWPDPRP | -0.14
RRIRSRPPRLPRPRPRPWQSPRP | 0.143
RRIRSRPPRLPRPRPRPWTTPRP | 0.00749
RRIRSRPPRLPRPRPRPWTVPRP | -0.0297
RRIRSRPPRLPRPRPRPWVTPRP | -0.89
RRIRSRPPRLPRPRPRPWWNPRP | -0.0574
RRIRSRPPRLPRPRPRPWWWPRP | 0.0716
RRIRSRPPRLPRPRPRPWWYPRP | -0.0611
RRIRSRPPRLPRPRPRPWYWPRP | -0.307
RRIRSRPPRLPRPRPRPYCNPRP | -0.709
RRIRSRPPRLPRPRPRPYCPPRP | -0.802
RRIRSRPPRLPRPRPRPYCSPRP | -0.094
RRIRSRPPRLPRPRPRPYDIPRP | -0.0295
RRIRSRPPRLPRPRPRPYEAPRP | -0.241
RRIRSRPPRLPRPRPRPYEFPRP | -0.438
RRIRSRPPRLPRPRPRPYFNPRP | -0.626
RRIRSRPPRLPRPRPRPYFVPRP | -1.14
RRIRSRPPRLPRPRPRPYGCPRP | -0.248
RRIRSRPPRLPRPRPRPYGFPRP | -0.85
RRIRSRPPRLPRPRPRPYGYPRP | -0.00281
RRIRSRPPRLPRPRPRPYHGPRP | -0.397
